Measured values: patent publication US20210284751A1 (MELLITUS, published 2021)

Legend:
CD59 (human CD59, hCD59) = target: T1, CD59 (human CD59, hCD59) (human, UniProt P13987 26-102); experiment: hybridoma antibody characterisation, method not described
T1 construct: also called non-glycated CD59
T1 sequence: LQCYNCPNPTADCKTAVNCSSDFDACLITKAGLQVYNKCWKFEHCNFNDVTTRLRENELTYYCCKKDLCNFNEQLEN

[1] = target: T2, K41 Amadori-modified glycated CD59 (GCD59) (human, UniProt P13987 26-102, Amadori-modified (glycated) lysine at K41, numbered on SEQ ID NO: 1); experiment: sandwich ELISA on urine dilutions (6, 3, 1.5, 0.75, 0.37, 0.18 %): H9 capture, D2 detection, HRP secondary antibody, OD 450 nm converted to SPU with the calibration curve
T2 construct: also called Amadori-modified GCD59; Amadori-modified hGCD59
T2 sequence: T1 sequence
Method: GCD59 detection in urine samples was carried out using detection antibody D2, described above, specific for Amadori-modified GCD59. Assay plates were first coated with CD59 capture antibody. H9. Urine samples were obtained from two subjects, one known to have a high level of HbA1C (HbA1C-H) and one known to have a low level of HbA1C (HbAC1-L). High levels of HbA1C are a known indicator of elevated blood glucose. Samples were prepared by first adding beta-mercaptoethanol (BME) to a final concentration of 5%. Samples were then boiled at 100° C. for 5 min and centrifuged to pellet any debris. Supernatants were then isolated for the assay. A surrogate compound standard, as shown in FIG. 27 of U.S. Pat. No. 9,417,248, was used to prepare a dilution series for generating a calibration curve. The Amadori-modified GCD59 surrogate included synthetic compounds including capture and detection peptides linked by a flexible linker.
Standard samples, urine samples, as well as control samples [serum dilution buffer (50 mM Acetic acid/Na acetate; 2% NonIdet P40 Substitute; 0.15% Tween 20; 0.1% Triton X-100; 50 ppm ProClin 300) only] were added to the assay plate in triplicate. Urine samples were further diluted using serum dilution buffer to create a series of conditions ranging from 6% v/v urine sample to 0.2% urine sample in serum dilution buffer. […]

B1: antibody H9 (clone H9), CD59 capture antibody (antibody, mouse IgG1, kappa, V domains shown)
VH: EVQLVESGGDLVKPGGSLKLSCAASGFTFSSYGMSWVRQSPDKRMEWVATISSGGSYTYYPDSVKGRFTVSRDNAKNTLYLQMSSLRSEDTAIFYCVRDRYDGMDYWGQGTSVTVSS
VL: DVVMTQSPLSLPVSLGDQASISCRSSQSLVHSNGNTYLQWYLQKPGQSPNLLIYKVSNRFSGVPDRFSGSGSGTDFTLKISRVEAEDLGVYFCSQSTHVPFTFGSGTKLEIKR
notes: Mouse hybridoma monoclonal antibody
B1: binds (CD59 (human CD59, hCD59)); binds [1].
